This note sets out measurements from patent publication US20240376207A1.

Read-outs that look alike come from different tables or passages of the source.

Assay in all cases: cell-based or functional assay
Assay [1] deals with human PVRIG expressed on cells (human) (UniProt Q6DKI7).
The target is the same in assay [2]. This is another data set of the same source.
For assay [3] the target is unchanged. The source holds these as a separate data set.

Sequence of human PVRIG expressed on cells (human) (Q6DKI7 41-326 limits assumed, form in doubt): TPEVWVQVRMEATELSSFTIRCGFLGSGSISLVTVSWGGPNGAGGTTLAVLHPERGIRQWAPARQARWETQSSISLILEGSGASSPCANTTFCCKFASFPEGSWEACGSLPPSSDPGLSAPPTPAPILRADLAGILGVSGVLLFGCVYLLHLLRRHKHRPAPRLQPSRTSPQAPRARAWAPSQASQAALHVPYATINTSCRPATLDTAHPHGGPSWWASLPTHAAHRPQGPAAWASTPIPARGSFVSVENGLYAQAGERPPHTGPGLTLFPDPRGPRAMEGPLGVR

In assay [1], IgG4 (control antibody) displayed an MLR IFNγ (pg/mL), 4 nM antibody (control baseline) of 984 pg/mL; an MLR IFNγ (pg/mL), 20 nM antibody (control baseline) of 814 pg/mL; an MLR IFNγ (pg/mL), 100 nM antibody (control baseline) of 1310 pg/mL; an NK92 killing of K562, killing activity (%), 20 nM antibody (control baseline) of 22%. The NK92 killing of K562, killing activity (%), 100 nM antibody (control baseline) in assay [1] was 22%. In assay [2], the NK92 killing of K562, killing activity (%), 4 nM antibody (control baseline) was 11.2%; the NK92 killing of K562, killing activity (%), 20 nM antibody (control baseline) is 11.7%; the NK92 killing of K562, killing activity (%), 100 nM antibody (control baseline) stood at 9.2%. In assay [3], this substance registered an MLR IFNγ (pg/mL), 20 nM antibody (control baseline) of 74 pg/mL and an MLR IFNγ (pg/mL), 100 nM antibody (control baseline) of 89 pg/mL.
